In publication doi:10.1101/2023.01.23.525122 (bioRxiv, 2023):
Substitutions are numbered along the chain they refer to. Names and notes keep the numbering of the source.

B1: NPM1-T4sD (natural protein, UniProt P06748 1-294, looked up)
chain: MEDSMDMDMSPLRPQNYLFGCELKADKDYHFKVDNDENEHQLSLRTVSLGAGAKDELHIVEAEAMNYEGSPIKVTLATLKMSVQPTVSLGGFEITPPVVLRLKCGSGPVHISGQHLVAVEEDAESEDEEEEDVKLLSISGKRSAPGGGSKVPQKKVKLAADEDDDDDDEEDDDEDDDDDDFDDEEAEEKAPVKKSIRDDPAKNAQKSNQNGKDSKPSSDPRSKGQESFKKQEKDPKDPKGPSSVEDIKAKMQASIEKGGSLPKVEAKFINYVKNCFRMTDQEAIQDLWQWRKSL
B2: NPM1-236A (natural protein, UniProt P06748 1-294, looked up)
chain: B1 chain with E2A, D3A, D6A, D199T, D219T, D234T, D237T
B3: NPM1-234567A (natural protein, UniProt P06748 1-294, looked up)
chain: B1 chain with E2A, D3A, S4A, M5A, D6A, M7A, D199T, D219T, D234T, D237T
B4: NPM1(1–130) (domain or fragment, UniProt P06748 1-130, looked up)
chain: MEDSMDMDMSPLRPQNYLFGCELKADKDYHFKVDNDENEHQLSLRTVSLGAGAKDELHIVEAEAMNYEGSPIKVTLATLKMSVQPTVSLGGFEITPPVVLRLKCGSGPVHISGQHLVAVEEDAESEDEEE
B5: NPM1(1–117) (domain or fragment, UniProt P06748 1-117, looked up)
chain: MEDSMDMDMSPLRPQNYLFGCELKADKDYHFKVDNDENEHQLSLRTVSLGAGAKDELHIVEAEAMNYEGSPIKVTLATLKMSVQPTVSLGGFEITPPVVLRLKCGSGPVHISGQHLV
B6: NPM1(1–150) (domain or fragment, UniProt P06748 1-150, looked up)
chain: MEDSMDMDMSPLRPQNYLFGCELKADKDYHFKVDNDENEHQLSLRTVSLGAGAKDELHIVEAEAMNYEGSPIKVTLATLKMSVQPTVSLGGFEITPPVVLRLKCGSGPVHISGQHLVAVEEDAESEDEEEEDVKLLSISGKRSAPGGGSK
B7: NPM1(1–140) (domain or fragment, UniProt P06748 1-140, looked up)
chain: MEDSMDMDMSPLRPQNYLFGCELKADKDYHFKVDNDENEHQLSLRTVSLGAGAKDELHIVEAEAMNYEGSPIKVTLATLKMSVQPTVSLGGFEITPPVVLRLKCGSGPVHISGQHLVAVEEDAESEDEEEEDVKLLSISG
B8: NPM1(1–160) (domain or fragment, UniProt P06748 1-160, looked up)
chain: MEDSMDMDMSPLRPQNYLFGCELKADKDYHFKVDNDENEHQLSLRTVSLGAGAKDELHIVEAEAMNYEGSPIKVTLATLKMSVQPTVSLGGFEITPPVVLRLKCGSGPVHISGQHLVAVEEDAESEDEEEEDVKLLSISGKRSAPGGGSKVPQKKVKLAA
B9: NPM1(1–188) (domain or fragment, UniProt P06748 1-188, looked up)
chain: MEDSMDMDMSPLRPQNYLFGCELKADKDYHFKVDNDENEHQLSLRTVSLGAGAKDELHIVEAEAMNYEGSPIKVTLATLKMSVQPTVSLGGFEITPPVVLRLKCGSGPVHISGQHLVAVEEDAESEDEEEEDVKLLSISGKRSAPGGGSKVPQKKVKLAADEDDDDDDEEDDDEDDDDDDFDDEEAEE
B10: NPM1(7–117) (domain or fragment, UniProt P06748 7-117, looked up)
chain: MDMSPLRPQNYLFGCELKADKDYHFKVDNDENEHQLSLRTVSLGAGAKDELHIVEAEAMNYEGSPIKVTLATLKMSVQPTVSLGGFEITPPVVLRLKCGSGPVHISGQHLV
B11: NPM1(7–117)-Y67F (domain or fragment, UniProt P06748 7-117, looked up)
chain: B10 chain with Y61F
B12: NPM1(7–117)-Y67H (domain or fragment, UniProt P06748 7-117, looked up)
chain: B10 chain with Y61H
B13: NPM1(7–117)-K32A (domain or fragment, UniProt P06748 7-117, looked up)
chain: B10 chain with K26A

Target: the molecule itself
Experiment: SDS-resistant oligomer detection by SDS-PAGE

Binding result, binds:
B1

Target: the molecule itself
Experiment: SDS-resistant oligomer detection by SDS-PAGE
Remark: another data set of the same source

Binding result, binds:
B2, B3

Target: the molecule itself
Experiment: SDS-resistant oligomer detection by SDS-PAGE
Remark: another data set of the same source

Binding result, binds:
B4, B5, B6, B7, B8, B9

Target: the molecule itself
Experiment: SDS-resistant oligomer detection by SDS-PAGE
Remark: another data set of the same source

Binding result, binds:
B10, B11, B12, B13
